Source: patent US7005505 (Genentech, dated 2006)
Changes are numbered by the printed parent chain. In names and notes the source's numbering stands.

B1: wildtype VEGF165 expressed in 293 cells (ligand)
chain: APMAEGGGQNHHEVVKFMDVYQRSYCHPIETLVDIFQEYPDEIEYIFKPSCVPLMRCGGCCNDEGLECVPTEESNITMQIMRIKPHQGQHIGEMSFLQHNKCECRPKKDRARQENPCGPCSERRKHLFVQDPQTCKCSCKNTDSRCKARQLELNERTCRCDKPRR
modifications: N-linked carbohydrate at Asn75
notes: Transiently expressed in 293 cells; tested as conditioned medium
B2: E64N, L66S VEGF (ligand)
chain: B1 chain with E64N, L66S
modifications: putative extra N-linked glycosylation at position 64
notes: Neo-glycosylation mutant from 293 cells, conditioned medium
B3: E64A VEGF (ligand)
chain: B1 chain with E64A
notes: VEGF165 mutant from 293 cells, conditioned medium
B4: H86A VEGF (ligand)
chain: B1 chain with H86A
notes: as for B3
B5: R23A VEGF (ligand)
chain: B1 chain with R23A
notes: as for B3
B6: RIK(82-84)NLS VEGF (ligand)
chain: B1 chain with R82N, I83L, K84S
modifications: potential N-linked glycosylation site at position 82 (extent of glycosylation not apparent)
notes: Neo-glycosylation mutant from 293 cells, conditioned medium; also called R82N, I83L, K84S
B7: D63A VEGF (ligand)
chain: B1 chain with D63A
notes: as for B3
B8: E42A VEGF (ligand)
chain: B1 chain with E42A
notes: as for B3
B9: E44A VEGF (ligand)
chain: B1 chain with E44A
notes: as for B3
B10: K48A VEGF (ligand)
chain: B1 chain with K48A
notes: as for B3
B11: R112A, E114A VEGF (ligand)
chain: B1 chain with R112A, E114A
notes: as for B3

Target: T1, KDR-IgG (UniProt P35968 20-764)
T1 construct: Construct only cited from Park et al. 1994; also called KDR receptor-IgG chimera; soluble KDR; not shown: IgG part of the chimera (captured by anti-human IgG Fc)
T1 sequence (P35968 20-764): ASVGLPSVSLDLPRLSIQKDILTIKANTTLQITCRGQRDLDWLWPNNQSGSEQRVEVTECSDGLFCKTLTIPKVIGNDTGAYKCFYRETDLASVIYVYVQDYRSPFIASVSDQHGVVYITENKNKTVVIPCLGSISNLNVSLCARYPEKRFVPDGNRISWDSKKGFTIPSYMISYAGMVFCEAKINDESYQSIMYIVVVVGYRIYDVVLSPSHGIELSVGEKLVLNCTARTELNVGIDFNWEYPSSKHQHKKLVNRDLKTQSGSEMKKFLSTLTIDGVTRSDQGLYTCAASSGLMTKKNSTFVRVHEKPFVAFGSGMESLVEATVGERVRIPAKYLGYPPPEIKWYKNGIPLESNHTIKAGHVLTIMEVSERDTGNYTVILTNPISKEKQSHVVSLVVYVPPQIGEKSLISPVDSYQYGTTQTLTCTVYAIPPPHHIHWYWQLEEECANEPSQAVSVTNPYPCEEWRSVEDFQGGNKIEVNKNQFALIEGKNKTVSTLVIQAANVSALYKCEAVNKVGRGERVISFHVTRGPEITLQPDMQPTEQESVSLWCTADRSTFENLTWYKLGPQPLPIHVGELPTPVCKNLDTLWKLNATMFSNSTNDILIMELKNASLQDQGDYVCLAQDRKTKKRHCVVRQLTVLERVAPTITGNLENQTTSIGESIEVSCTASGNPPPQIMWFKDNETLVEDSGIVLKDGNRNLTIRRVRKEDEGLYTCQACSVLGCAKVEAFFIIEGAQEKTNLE
Assay: competition with 125I-VEGF165 for KDR-IgG, n=8
Description: (§1) After the supernatant was discarded, the wells were washed three times in washing buffer (0.01% Tween 80 in PBS). The plate was blocked (300 µl/well) for one hr in assay buffer (0.5% BSA, 0.03% Tween 80, 0.01% Thimerosal in PBS). The supernatant was discarded and the wells were washed. […] Aliquots of this solution (100 µl) were added to pre-coated microtiter plates and incubated for 4 hr at ambient temperature with gentle agitation. The supernatant was discarded, the plate washed, and individual microtiter wells were counted by gamma scintigraphy (LKB model 1277).
(§2) In addition to the specific amino acid substitutions, the table indicates the mean residue number for the position of the mutation(s). For a given mutant, this number is the average of the altered positions.

Work on B1 yielded an IC50 of 0.031 nM.

Target: T2, FLT-1 IgG (UniProt P17948 27-758)
T2 construct: Construct only cited from Park et al. 1994; also called FLT-IgG; FLT-1 receptor-IgG chimera; not shown: IgG part of the chimera (captured by anti-human IgG Fc)
T2 sequence (P17948 27-758): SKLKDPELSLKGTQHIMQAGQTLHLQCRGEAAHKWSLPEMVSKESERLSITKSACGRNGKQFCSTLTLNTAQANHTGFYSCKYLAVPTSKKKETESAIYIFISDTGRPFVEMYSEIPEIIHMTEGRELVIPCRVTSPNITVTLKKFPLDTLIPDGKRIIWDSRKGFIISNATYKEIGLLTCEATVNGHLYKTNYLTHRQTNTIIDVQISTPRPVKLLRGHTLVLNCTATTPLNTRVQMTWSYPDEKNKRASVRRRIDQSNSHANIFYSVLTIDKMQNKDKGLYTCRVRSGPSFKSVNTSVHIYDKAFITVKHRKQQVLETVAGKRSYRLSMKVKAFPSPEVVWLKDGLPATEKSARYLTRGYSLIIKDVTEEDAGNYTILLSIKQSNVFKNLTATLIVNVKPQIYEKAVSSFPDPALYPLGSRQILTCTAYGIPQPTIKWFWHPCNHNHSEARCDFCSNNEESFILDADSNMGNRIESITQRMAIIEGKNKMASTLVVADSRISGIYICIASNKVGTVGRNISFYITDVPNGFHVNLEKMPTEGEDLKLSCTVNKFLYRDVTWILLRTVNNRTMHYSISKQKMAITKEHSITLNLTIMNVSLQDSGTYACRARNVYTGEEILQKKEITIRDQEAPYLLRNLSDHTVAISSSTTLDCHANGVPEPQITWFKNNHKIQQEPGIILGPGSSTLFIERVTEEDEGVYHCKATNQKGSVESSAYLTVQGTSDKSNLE
Assay: competition with 125I-VEGF165 for FLT-1-IgG, with heparin
Description: as §1

First: B1
Second: B2
The IC50 of the first is 43-fold lower: 0.015 nM for the first, 0.65 nM for the second.

Target: T1, KDR-IgG
Assay: competition with 125I-VEGF165 for KDR-IgG, radioligand plate assay
Description: as §1

First: B3
Second: B4
The IC50 of the first is 4-fold higher: 8 ng/mL for the first, 2 ng/mL for the second.

First: B5
Second: B6
The IC50 of the first is lower: 2 ng/mL for the first, over 10000 ng/mL for the second.

Target: T2, FLT-1 IgG
Assay: competition with 125I-VEGF165 for FLT-1-IgG, radioligand plate assay
Description: as §1

Going from B7 to B3, the IC50 falls from 1.54 ng/mL to 0.94 ng/mL (1.6-fold).

First: B2
Second: B4
The IC50 of the first is 30-fold higher: 35.6 ng/mL for the first, 1.19 ng/mL for the second.

With B6 the IC50 was 1.63 ng/mL.

Target: T2, FLT-1 IgG
Assay: as above
Remark: another data set of the same source
Description: as §1

B8 and B9 are within 1.5-fold of each other in IC50: 0.51 ng/mL for the first, 0.54 ng/mL for the second.

B10 and B5 are within 1.5-fold of each other in IC50: 1.08 ng/mL for the first, 1 ng/mL for the second.

With B11 the IC50 was 0.56 ng/mL.

Target: T1, KDR-IgG
Assay: competition with 125I-VEGF165 for KDR-IgG, radioligand plate assay, no heparin
Description: as §1, §2

Compared with B1, B7 is 6-fold lower in IC50: 0.03 nM for the first, 0.005 nM for the second. The second is the more potent here.

Going from B8 to B9, the IC50 falls from 0.007 nM to 0.004 nM (1.8-fold). The second is the more potent here.

First: B10
Second: B11
The IC50 of the first is 2-fold lower: 0.02 nM for the first, 0.04 nM for the second.

Binder B6 has an IC50 of over 100 nM.

Target: T2, FLT-1 IgG
Assay: competition with 125I-VEGF165 for FLT-1-IgG, radioligand plate assay, no heparin
Description: as §1

B1 and B7 are within 1.5-fold of each other in IC50: 0.022 nM for the first, 0.026 nM for the second.

B8 and B9 are within 1.5-fold of each other in IC50: 0.008 nM for the first, 0.009 nM for the second.

First: B3
Second: B2
The IC50 of the first is 61-fold lower: 0.016 nM for the first, 0.98 nM for the second.

Going from B4 to B10, the IC50 rises from 0.015 nM to 0.026 nM (1.7-fold). The first is the more potent here.

Going from B5 to B11, the IC50 falls from 0.03 nM to 0.013 nM (2.3-fold). The second is the more potent here.

Work on B6 yielded an IC50 of 0.029 nM.
